# Experiment: soluble on expression in E. coli; label from the status in PepcDB or PDB records
row,Sequence,soluble on expression in E. coli
1,MSLVVKVKQKIPLKIKRMGINGEGIGFYQKTLVFVPGALKGEDIFCQITAVKRNFAEAKLLTVNKASKNRVKPACSVYETCGGCQIMHLAYPKQLDFKDDVIRQALKKFKPTGYEQFEIRPTLGMKKPDHYRAKLQFQLRSFGGTVKAGLFSQGSHRLVPIDNCLVQDQLTQDIINKITQLVDKYKLPIYNERKIAGIRTIMVRKAQASDQVQIIVVSSKEVRLANFIGELTKAFPQVKTVALNSNRSKSSEIYGDETEILWGQEAIHEEVLDYGFALSPRAFYQLNPQQTEVLYGEVVKALDVGSKDHIIDAYCGVGSIGFAFAGKVKSVRGMDIIPEAIEDAQKNAKAMGFDNAYYEAGKAEDIISKWYKQGYRADAVIVDPPRTGLDDKLLKTILHYQPKQMVYVSCNTSTLARDLVQLTKVYDVHYIQSVDMFPHTARTEAVVKLQKRVEGHHHHHH,not soluble
2,MSLWHGVIVATSLPFDDDLSVDFGAYGESVAHLAAQGMHGVAPNGSLGEYQTLTYEERDRVVETAVANAPEGFTVMPGVGAYGGREAERHARFAKDAGCQAVMCLPPNAYRADDRAVLQHFERVASVGLPVTAYNNPIDTKVDLRPDLLAKLHAEGYIVGVKEFSGDVRRCYEISELAPGLDLMIGTDDTVLEVALAGAKGWVAGYPQVFPRACLALYEASVRGDLEAALPLYRQLHPVLRWDSKTEFVQAIKLGQELTGRRGGPCRPPRQPLAPETEAVVRAATQALVDAGVNEGHHHHHH,soluble
3,MSLYEITQYRLPHLSESAEALCHADKRPVFVGDSAAKPGLQLQQDETRWHSARQHRWSTPLAHQLQRSVQRLLLADNCEGKLTVWVDDFYGSNDSRAVVAGHWEYKSQDSQTVLKGTFTESTPLKSDGYPALVNALDEAWLNVMDTISLGVGQKLAREGHHHHHH,soluble
4,MSLYFSGEPAQIAEIKRLASGAVTPLYRRATNEGIQLFLAGSAGLLQTTEDVRFEPCPGLTAAGRGVVSPENIAFTRWLTHLQDGVLLDEQNCLMLHELWLQSGTGRRRWEELPDDARESITALFTPKRGDWCDIWSNEDVSVWWNRLCDNVLPEKTMPFDLLTVLSTRLDVEVNGFNGGVLNGVPSAYHWYTEQYGVKWPCGYEVNISSQGDNFIQVDFDTPWCQPESDVIAVLSRRFSCMLEHWYAGQGCNFCGWQRYERGELVDVLWGELEWSSPTDDDELPEVTAPEWIVDKVAHYGGEGHHHHHH,not soluble
5,MSLYIPCLMCTQHPDSTVKITAGEEVDEAVVAFLAYGCDEVMVDYEGKATPYSQPRDVASKALALGLPLGERFFITPRVPNPRLEDFERSMLSLEAAVLANSYSQRAAGVQAVKWVVLPMTEDVETMAFVYKALDMKARDLAELNAVKRDSSIELIPLVEDAMRQIKIESFIKALFRTAAQSGRILEHMRIFLGISDSAVRHGHMASALAMVKALGQISEINRDGEFKISPIVGMGSPPFRGGLNNPHLAVPEAAQYAGYKTATIQSAVRYDVSYAEYQKVREAILSVYTPRRLHVEEAWITKASELYREAIRPYIGKIAELANAIPSTRDRVSWREYGRVIEGVEWRVPRAIVYTATWYFAGVPPTLLDARFIAWAYKNDLLDDVLRALPATVEEWKFESRFYSRERAEKTLGGEIVKDIDNAFDILGIKPEPDRTYITLLNSADTQPHAIALGRIRGFLGEGHHHHHH,not soluble
6,MSLYIQNLELTSYRNYDHAELQFENKVNVIIGENAQGKTNLMEAIYVLSMAKSHRTSNDKELIRWDKDYAKIEGRVMKQNGAIPMQLVISKKGKKGKVNHIEQQKLSQYVGALNTIMFAPEDLNLVKGSPQVRRRFLDMEIGQVSPVYLHDLSLYQKILSQRNHFLKQLQTRKQTDRTMLDVLTDQLVEVAAKVVVKRLQFTAQLEKWAQPIHAGISRGLEELTLKYHTALDVSDPLDLSKIGDSYQEAFSKLREKEIERGVTLSGPHRDDVLFYVNGRDVQTYGSQGQQRTTALSLKLAEIDLIHEEIGEYPILLLDDVLSELDDYRQSHLLHTIQGRVQTFVTTTSVDGIDHETLRQAGMFRVQNGALVKEGGSHHHHHH,soluble
7,MSLYLIVGAYPSTPQVMKNIKMTSDALKKKESLICLNVLSKYNPEKHSNTSKRLPVKFFSGVLIVLMNTDNWASLEKRFSSEIANWRSGGNVICIAIGELGKFKGNDTYYLKTLQIALMNVDDNWIPADSSYELTMLNYLHKHERSFIKPLRYDASNNDVFPDFCLTDIGSTELFPIEVFGMDTASYLARKVIKESYYNERYGKDGWASWEAPAGPLPICPIRPAVNYQMLLEGHHHHHH,not soluble

# Source: the DeepSol protein solubility set
